Results: patent US20200339690A1 (JOUNCE THERAPEUTICS, published 2020)

Experiments:
[1] = biological target: T1, human LILRB2 expressed on cells (human, UniProt Q8N423 22-597); test: cell-based or functional assay
human LILRA1 = biological target: T2, human LILRA1 (human, UniProt O75019 17-489); test: flow cytometry, LILRA1 CHOs
T2 construct: Over-expressed on CHO-s cells; also called hLILRA1
Method: (§1) To test for specificity to hLILRB2 and not towards any of the ten LILR family members, a multiplexed cell-based barcoding approach was used by staining cells with Far Red and/or Violet Cell Trace dyes (Thermo Scientific) according to manufacturer's protocol or left unstained. In brief, cells were washed twice with 1×DPBS and then incubated with diluted dye in 1×DPBS for 20 minutes at 37° C., mixing gently every 5-10 minutes. Dye labeling was quenched by adding equal volume of 100% HI-FBS (Sigma) to the cells. Note that LILRB1, LILRB2, LILRB3, LILRB4, and LILRB5 cell lines are also GFP-positive, while LILRA1, LILRA2, LILRA3, LILRA4, LILRA5, and LILRA6 cell lines are GFP-negative. The cells were then washed twice in 1×DPBS and then all 11 cell lines were combined per well in a 96-well round bottom tissue-culture treated plate. At least 25×10³ cells of each cell-line were plated per well. Cells were then re-suspended in primary antibody (anti-LILRB2 mAbs or control) prepared in FACS buffer (1×DPBS containing 2% HI-FBS (Sigma)+0.05% Sodium Azide). After incubation at 4° C. for 30 minutes, cells were washed twice with 1×DPBS and re-suspended in anti-human IgG-PE (BioLegend) diluted 1:200 in FACS buffer. Following a 30 minute incubation at 4° C., protected from light, cells were washed in 1×DPBS and re-suspended in fix buffer (1.5% paraformaldehyde diluted in 1×DPBS). Samples were analyzed using the Celesta flow cytometer analyzer (BD Biosciences). Geometric mean fluorescence intensity (gMFI) of PE was determined for each antibody across each cell line. Background MFI was detected with isotype control and relative binding of antibodies tested was measured as a fold over isotype.

human LILRA2 = biological target: T3, human LILRA2 (human, UniProt Q8N149 24-483); test: flow cytometry, LILRA2 CHOs
T3 construct: Over-expressed on CHO-s cells; also called hLILRA2
T3 sequence (Q8N149 24-483 S135L limits assumed): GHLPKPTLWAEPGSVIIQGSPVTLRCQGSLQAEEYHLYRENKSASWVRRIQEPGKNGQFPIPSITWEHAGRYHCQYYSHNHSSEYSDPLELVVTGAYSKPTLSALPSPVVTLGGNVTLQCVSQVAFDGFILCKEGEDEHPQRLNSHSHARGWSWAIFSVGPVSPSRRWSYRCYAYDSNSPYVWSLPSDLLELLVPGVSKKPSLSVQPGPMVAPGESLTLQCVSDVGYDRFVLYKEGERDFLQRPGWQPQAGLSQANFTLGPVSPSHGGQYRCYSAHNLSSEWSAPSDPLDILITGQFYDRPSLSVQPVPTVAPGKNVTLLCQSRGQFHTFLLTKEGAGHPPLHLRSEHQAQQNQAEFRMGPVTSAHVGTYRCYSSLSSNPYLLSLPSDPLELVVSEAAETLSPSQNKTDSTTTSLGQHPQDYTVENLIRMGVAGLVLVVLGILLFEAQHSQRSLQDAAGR
Method: as §1

human LILRA3 = biological target: T4, human LILRA3 (human, UniProt Q8N6C8 24-439); test: flow cytometry, LILRA3 CHOs
T4 construct: Over-expressed on CHO-s cells; also called hLILRA3
T4 sequence (Q8N6C8 24-439 limits assumed): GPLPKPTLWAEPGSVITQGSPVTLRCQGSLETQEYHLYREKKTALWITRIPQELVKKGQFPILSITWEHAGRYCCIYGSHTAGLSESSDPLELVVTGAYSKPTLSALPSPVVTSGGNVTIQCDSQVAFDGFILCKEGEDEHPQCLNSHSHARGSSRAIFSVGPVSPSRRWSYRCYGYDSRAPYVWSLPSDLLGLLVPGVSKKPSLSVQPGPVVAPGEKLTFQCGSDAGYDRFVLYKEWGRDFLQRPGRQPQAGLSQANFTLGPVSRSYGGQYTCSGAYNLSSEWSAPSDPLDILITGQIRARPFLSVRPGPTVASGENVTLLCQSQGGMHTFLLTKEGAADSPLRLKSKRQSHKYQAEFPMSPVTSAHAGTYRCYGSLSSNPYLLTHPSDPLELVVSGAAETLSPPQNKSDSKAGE
Method: as §1

human LILRA4 = biological target: T5, human LILRA4 (human, UniProt P59901 24-499); test: flow cytometry, LILRA4 CHOs
T5 construct: Over-expressed on CHO-s cells; also called hLILRA4
T5 sequence (P59901 other isoform, or with tags, fused parts or gaps limits assumed): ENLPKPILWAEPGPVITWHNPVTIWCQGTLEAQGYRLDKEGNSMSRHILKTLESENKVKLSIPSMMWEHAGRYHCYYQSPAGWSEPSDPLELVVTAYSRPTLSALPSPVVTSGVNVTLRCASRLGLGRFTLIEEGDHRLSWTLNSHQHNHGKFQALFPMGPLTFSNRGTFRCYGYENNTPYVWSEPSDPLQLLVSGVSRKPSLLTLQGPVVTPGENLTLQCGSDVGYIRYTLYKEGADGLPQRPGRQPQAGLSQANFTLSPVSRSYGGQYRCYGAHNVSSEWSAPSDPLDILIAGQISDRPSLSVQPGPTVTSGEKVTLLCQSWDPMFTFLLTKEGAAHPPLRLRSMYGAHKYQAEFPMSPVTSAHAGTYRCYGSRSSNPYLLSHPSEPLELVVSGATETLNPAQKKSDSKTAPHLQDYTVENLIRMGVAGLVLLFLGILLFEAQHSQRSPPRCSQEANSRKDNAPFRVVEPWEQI
Method: as §1

human LILRA5 = biological target: T6, human LILRA5 (human, UniProt A6NI73 42-299); test: flow cytometry, LILRA5 CHOs
T6 construct: Over-expressed on CHO-s cells; also called hLILRA5
T6 sequence (A6NI73 42-299 limits assumed): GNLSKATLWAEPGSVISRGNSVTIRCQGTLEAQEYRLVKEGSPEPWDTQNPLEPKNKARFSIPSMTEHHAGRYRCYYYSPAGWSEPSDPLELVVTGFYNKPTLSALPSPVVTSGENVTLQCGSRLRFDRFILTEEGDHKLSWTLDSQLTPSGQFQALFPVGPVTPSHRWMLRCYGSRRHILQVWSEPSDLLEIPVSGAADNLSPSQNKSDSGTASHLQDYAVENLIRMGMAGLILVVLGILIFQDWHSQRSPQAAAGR
Method: as §1

human LILRA6 = biological target: T7, human LILRA6 (human, UniProt Q6PI73 24-481); test: flow cytometry, LILRA6 CHOs
T7 construct: Over-expressed on CHO-s cells; also called hLILRA6
T7 sequence (Q6PI73 24-481 limits assumed): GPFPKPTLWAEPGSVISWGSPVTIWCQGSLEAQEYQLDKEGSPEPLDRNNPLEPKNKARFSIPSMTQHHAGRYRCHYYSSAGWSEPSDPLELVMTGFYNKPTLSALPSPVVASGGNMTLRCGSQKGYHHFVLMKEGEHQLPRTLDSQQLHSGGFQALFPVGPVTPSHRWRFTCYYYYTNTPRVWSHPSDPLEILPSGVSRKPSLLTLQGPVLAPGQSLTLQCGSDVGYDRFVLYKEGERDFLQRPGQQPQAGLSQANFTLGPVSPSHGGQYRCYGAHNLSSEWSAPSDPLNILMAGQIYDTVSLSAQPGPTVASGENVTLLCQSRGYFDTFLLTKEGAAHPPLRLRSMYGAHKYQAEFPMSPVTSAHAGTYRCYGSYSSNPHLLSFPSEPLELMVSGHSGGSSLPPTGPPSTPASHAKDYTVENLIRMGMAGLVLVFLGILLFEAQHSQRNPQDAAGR
Method: as §1

human LILRB1 = biological target: T8, human LILRB1 (human, UniProt Q8NHL6 24-650); test: flow cytometry, LILRB1 CHOs
T8 construct: Over-expressed on CHO-s cells; also called hLILRB1
T8 sequence (Q8NHL6 24-650 limits assumed): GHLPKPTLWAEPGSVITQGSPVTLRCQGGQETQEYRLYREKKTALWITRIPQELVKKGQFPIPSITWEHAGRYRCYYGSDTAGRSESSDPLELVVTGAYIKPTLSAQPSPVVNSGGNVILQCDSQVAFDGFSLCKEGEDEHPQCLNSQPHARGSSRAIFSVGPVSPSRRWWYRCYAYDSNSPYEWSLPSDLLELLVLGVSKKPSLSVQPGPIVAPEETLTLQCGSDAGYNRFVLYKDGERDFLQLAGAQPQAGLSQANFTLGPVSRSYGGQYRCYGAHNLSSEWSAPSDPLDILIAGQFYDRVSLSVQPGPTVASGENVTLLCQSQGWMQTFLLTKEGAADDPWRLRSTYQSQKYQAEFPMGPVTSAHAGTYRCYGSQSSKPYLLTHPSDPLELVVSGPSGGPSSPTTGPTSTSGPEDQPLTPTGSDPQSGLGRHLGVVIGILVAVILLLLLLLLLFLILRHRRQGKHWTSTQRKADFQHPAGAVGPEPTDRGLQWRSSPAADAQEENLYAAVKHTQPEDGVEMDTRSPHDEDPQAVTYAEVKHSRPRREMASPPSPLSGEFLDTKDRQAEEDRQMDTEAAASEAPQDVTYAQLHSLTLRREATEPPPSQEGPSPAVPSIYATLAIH
Method: as §1

[2] = biological target: T1, human LILRB2 expressed on cells; test: flow cytometry, LILRB2 CHOs
human LILRB3 = biological target: T9, human LILRB3 (human, UniProt O75022 24-631); test: flow cytometry, LILRB3 CHOs
T9 construct: Over-expressed on CHO-s cells; also called hLILRB3
Method: as §1

human LILRB4 = biological target: T10, human LILRB4 (human, UniProt Q8NHJ6 22-448); test: flow cytometry, LILRB4 CHOs
T10 construct: Over-expressed on CHO-s cells; also called hLILRB4
Method: as §1

human LILRB5 = biological target: T11, human LILRB5 (human, UniProt O75023 24-590); test: flow cytometry, LILRB5 CHOs
T11 construct: Over-expressed on CHO-s cells; also called hLILRB5
T11 sequence (O75023 24-590 P542R limits assumed): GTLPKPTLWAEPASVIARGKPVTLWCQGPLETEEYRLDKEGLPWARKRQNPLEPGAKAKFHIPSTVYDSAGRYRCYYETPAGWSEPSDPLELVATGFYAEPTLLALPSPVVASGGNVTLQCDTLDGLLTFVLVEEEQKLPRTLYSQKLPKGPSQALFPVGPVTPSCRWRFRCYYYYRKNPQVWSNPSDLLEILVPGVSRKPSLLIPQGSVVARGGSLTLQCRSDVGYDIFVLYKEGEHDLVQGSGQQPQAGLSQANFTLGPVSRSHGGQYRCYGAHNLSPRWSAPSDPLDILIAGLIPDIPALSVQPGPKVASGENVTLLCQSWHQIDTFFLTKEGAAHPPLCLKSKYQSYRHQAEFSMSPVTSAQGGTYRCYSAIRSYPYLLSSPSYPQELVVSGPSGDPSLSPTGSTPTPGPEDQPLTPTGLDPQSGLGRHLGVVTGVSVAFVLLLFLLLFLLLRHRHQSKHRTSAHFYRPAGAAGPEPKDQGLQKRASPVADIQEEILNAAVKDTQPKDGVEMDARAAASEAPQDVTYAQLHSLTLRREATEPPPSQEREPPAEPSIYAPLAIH
Method: as §1

[3] = biological target: T1, human LILRB2 expressed on cells; test: flow cytometry, binding to hLILRB2 CHOs
[4] = biological target: T1, human LILRB2 expressed on cells; test: HLA-G:LILRB2 blocking; HLA-G tetramer on primary human macrophages, flow cytometry
Method: (§2) The potency of select humanized variants in blocking the interaction of HLA-G and HLA-A2 with primary human macrophage-expressed hLILRB2 were assessed. Primary human monocytes were differentiated into macrophages in the presence of M-CSF. After seven days of differentiation, 1×10⁵ HMDMs were plated in 96-well round-bottom tissue culture-treated plate and washed twice with 1×DPBS (Gibco) and then incubated with 50 μL primary antibody (anti-LILRB2 mAbs or control) prepared in FACS buffer (1×DPBS containing 2% HI-FBS (Sigma)+0.05% Sodium Azide). After incubation with mAbs for 30 minutes at 4° C., cells were washed twice in FACS buffer and then resuspended in 50 μL of FACS buffer containing 5 μg/mL APC-conjugated HLA-G or HLA-A2 tetramer (Fred Hutch). Cells were incubated protected from light for 30-60 minutes at 4° C. After incubation with tetramer, cells were washed in FACS buffer and re-suspended in fix buffer (1.5% paraformaldehyde diluted in 1×DPBS). Samples were analyzed using the Celesta flow cytometer analyzer (BD Biosciences).

[5] = biological target: T1, human LILRB2 expressed on cells; test: HLA-A2:LILRB2 blocking; HLA-A2 tetramer on primary human macrophages, flow cytometry
Method: as §2

human LILRB2-His = human LILRB2-His (human, UniProt Q8N423 22-460); test: SPR, Sierra Sensors MASS-2; antibody captured on anti-human Fc, LILRB2-His 65 to 0.27 nM, 1:1 Langmuir fit
Chain of human LILRB2-His (Q8N423 other isoform, or with tags, fused parts or gaps): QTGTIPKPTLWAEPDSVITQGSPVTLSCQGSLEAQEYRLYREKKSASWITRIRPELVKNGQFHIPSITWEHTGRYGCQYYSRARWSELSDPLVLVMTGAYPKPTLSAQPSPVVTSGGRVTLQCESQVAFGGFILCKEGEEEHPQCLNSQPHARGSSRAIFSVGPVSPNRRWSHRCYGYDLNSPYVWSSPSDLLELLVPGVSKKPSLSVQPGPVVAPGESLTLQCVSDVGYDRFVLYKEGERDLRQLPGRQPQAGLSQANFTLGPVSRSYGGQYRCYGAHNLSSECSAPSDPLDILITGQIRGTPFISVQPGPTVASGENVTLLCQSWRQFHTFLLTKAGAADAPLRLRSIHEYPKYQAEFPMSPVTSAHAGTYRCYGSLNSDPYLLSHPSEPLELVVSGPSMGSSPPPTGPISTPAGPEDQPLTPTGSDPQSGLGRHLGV
Method: Using a Mass-2 (Sierra Sensors) high capacity amine chip preimmobilized with AffiniPure Goat Anti-Human IgG, Fcγ Fragment Specific antibody, humanized antibodies were captured on the anti-human surface and then binding to human LILRB2-His was measured by flowing six different concentrations from 65 to 0.27 nM of the analyte over the antibody surface. The anti-LILRB2 surface was removed (10 mM Glycine, pH 2.0) and recaptured between all concentrations or buffer only cycles. The data was analyzed using the Sierra Analyzer software (version 3.1.14). All curves were double subtracted and fit to a 1:1 Langmuir Fit.

T1 sequence (Q8N423 other isoform, or with tags, fused parts or gaps limits assumed): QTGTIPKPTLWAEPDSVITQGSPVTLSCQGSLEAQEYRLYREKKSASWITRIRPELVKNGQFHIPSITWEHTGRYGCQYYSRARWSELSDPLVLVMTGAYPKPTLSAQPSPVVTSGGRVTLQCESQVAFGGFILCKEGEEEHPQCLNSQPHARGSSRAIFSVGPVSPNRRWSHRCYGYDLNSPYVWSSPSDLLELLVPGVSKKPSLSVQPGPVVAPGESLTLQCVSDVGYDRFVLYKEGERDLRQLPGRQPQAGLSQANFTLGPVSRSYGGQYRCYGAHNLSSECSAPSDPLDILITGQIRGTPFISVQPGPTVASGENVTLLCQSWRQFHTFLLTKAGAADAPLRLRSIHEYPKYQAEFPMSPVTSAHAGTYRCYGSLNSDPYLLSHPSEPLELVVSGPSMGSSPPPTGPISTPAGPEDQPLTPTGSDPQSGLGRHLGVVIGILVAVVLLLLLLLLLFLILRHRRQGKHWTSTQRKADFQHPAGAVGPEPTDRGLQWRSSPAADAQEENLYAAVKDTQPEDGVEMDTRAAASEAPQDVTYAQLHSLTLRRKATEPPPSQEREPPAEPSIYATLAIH
T2 sequence (O75019 17-489 limits assumed): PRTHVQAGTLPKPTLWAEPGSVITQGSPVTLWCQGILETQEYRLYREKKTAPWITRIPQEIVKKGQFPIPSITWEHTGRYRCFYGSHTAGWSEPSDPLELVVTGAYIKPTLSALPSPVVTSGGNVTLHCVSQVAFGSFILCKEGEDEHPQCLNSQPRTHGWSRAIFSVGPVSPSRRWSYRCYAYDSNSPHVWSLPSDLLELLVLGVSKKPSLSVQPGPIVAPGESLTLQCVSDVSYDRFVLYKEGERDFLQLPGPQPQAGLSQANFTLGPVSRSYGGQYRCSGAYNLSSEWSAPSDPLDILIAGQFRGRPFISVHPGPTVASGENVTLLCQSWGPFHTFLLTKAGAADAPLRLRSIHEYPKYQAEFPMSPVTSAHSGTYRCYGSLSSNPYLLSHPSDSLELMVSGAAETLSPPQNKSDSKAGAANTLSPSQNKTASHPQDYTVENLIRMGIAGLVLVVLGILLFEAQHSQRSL

B1: J-19.h2 (antibody, human IgG4 S228P, kappa, V domains shown)
VH: QITLKESGPTLVKPTQTLTLTCTFSGFSLNTYAMGVSWIRQPPGKALEWLASIWWNGNKYNNPSLKSRLTVTKDTSKNQVVLTMTNMDPVDTATYYCAHSRIIRFTDYVMDAWGQGTLVTVSS
VL: DIVMTQSPSSLSASVGDTVTITCRASEDIYNDLAWYQQKPGKAPQLLLYNANSLHTGVPSRFSGSGSGTDYTLTISTLQPEDFATYYCQQYYDYPLTFGPGTKVHIKR
notes: Humanized, human IgG4 backbone
With B1 as the binder, how does the “EC50, IL-6 production by LPS-stimulated HMDMs” value [1] read?
The value was 0.186 nM.

What about the “EC50, TNFa production by LPS-stimulated HMDMs” value [1] of the same binder?
Its value is 0.12 nM.

What about the “IC50, CCL2 production by LPS-stimulated HMDMs” value [1] of the same binder?
Its value is 0.011 nM.

What about the “IC50, IL-10 production by LPS-stimulated HMDMs” value [1] of the same binder?
Its value is 0.702 nM.

What about the “binding (fold over iso)” value (human LILRA1) of the same binder?
Its value is 0.89 fold over iso.

Does B1 bind (human LILRA1)?
Result: no binding

What about the “binding (fold over iso)” value (human LILRA2) of the same binder?
Its value is 0.66 fold over iso.

Does B1 bind (human LILRA2)?
Result: no binding

What about the “binding (fold over iso)” value (human LILRA3) of the same binder?
The value was 0.83 fold over iso.

Does B1 bind (human LILRA3)?
Result: no binding

And the “binding (fold over iso)” value (human LILRA4)?
Its value is 0.84 fold over iso.

Does B1 bind (human LILRA4)?
Result: no binding

And the “binding (fold over iso)” value (human LILRA5)?
Its value is 0.86 fold over iso.

Does B1 bind (human LILRA5)?
Result: no binding

And the “binding (fold over iso)” value (human LILRA6)?
The value was 0.74 fold over iso.

Does B1 bind (human LILRA6)?
Result: no binding

And the “binding (fold over iso)” value (human LILRB1)?
Its value is 0.73 fold over iso.

Does B1 bind (human LILRB1)?
Result: no binding

What about the “binding (fold over iso)” value [2] of the same binder?
The value was 74.5 fold over iso.

And the “binding (fold over iso)” value (human LILRB3)?
The value was 0.81 fold over iso.

Does B1 bind (human LILRB3)?
Result: no binding

And the “binding (fold over iso)” value (human LILRB4)?
Its value is 0.9 fold over iso.

Does B1 bind (human LILRB4)?
Result: no binding

And the “binding (fold over iso)” value (human LILRB5)?
Its value is 0.76 fold over iso.

Does B1 bind (human LILRB5)?
Result: no binding

What about the EC50 [3] of the same binder?
Its EC50 is 0.447 nM.

And the EC50 [4]?
The EC50 was 0.122 nM.

And the EC50 [5]?
The EC50 was 0.087 nM.

And the Kd (human LILRB2-His)?
The Kd was 4.58 nM.

And the koff (human LILRB2-His)?
Its koff is 0.00238 s⁻¹.

And the kon (human LILRB2-His)?
The kon was 521000 M⁻¹ s⁻¹.
